These results are taken from US20240034779A1 (Takeda / Millennium, published 2024).

In test [1] the target is T1, cynomolgus complement factor D (CFD) (cynomolgus monkey).
T1 construct: also called cyno CFD; cynomolgus CFD
Briefly: SPR (Biacore), pH 7.4. On the technique in general: In SPR one partner is held on a chip, and binding of the other changes the refractive index at the surface.

For test [2], the target named is T2, human complement factor D (CFD) (human, UniProt P00746 26-253, limits assumed).
T2 construct: also called human CFD; adipsin
Briefly: SPR (Biacore), pH 7.4; pH 7.4.

The target of test [3] is T2, human complement factor D (CFD). Kind of test: SPR (Biacore), pH 5.5.
In test [4] the target is T1, cynomolgus complement factor D (CFD). Kind of test: SPR (Biacore), pH 5.5.

In general, Kd refers to a measure of binding affinity in units of concentration. Lower therefore signals higher affinity.

T2 sequence (P00746 26-253 limits assumed): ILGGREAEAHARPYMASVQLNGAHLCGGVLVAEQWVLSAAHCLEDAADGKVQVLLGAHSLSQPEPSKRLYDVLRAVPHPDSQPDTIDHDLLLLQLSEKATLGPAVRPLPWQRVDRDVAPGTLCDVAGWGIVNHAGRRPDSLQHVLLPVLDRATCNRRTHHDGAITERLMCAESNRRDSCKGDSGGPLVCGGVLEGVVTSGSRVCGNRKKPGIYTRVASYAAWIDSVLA

B1: anti-CFD antibody 2 (clone 169C8) (antibody, human IgG1, lambda, L234A L235A, V domains shown)
VH: EVQVQESGPGLVKPSQTLSLTCTVSGGSITTSYYAWSWIRQPPGKGLEWMGDIANDGSTYYSPSLESRTSISRDTSKNQFSLQLSSVTPEDTAVYYCARLRSLYTDYDPHYYDYWGQGTQVTVSS
VL: SSALTQPSALSVTKGQTAKITCQGDLLPRHYAHWYQQKTGQAPKLIVYDDDIRPSGIPERFSGSNSGGVATLTIAGAQAEDEADYHCQSADSNDDAVFGGGTHLTVLS
notes: also called anti-CFD mAb 2; ASHE mAb
As to B1, the Kd is 0.037 nM in test [1], 0.002 nM in test [2], 805 nM in test [3] and 4.59 nM in test [4].
